Experimental findings from the supplement of paper PMC9112550, “Optimization of the antimicrobial peptide Bac7 by deep mutational scanning” (BMC Biology, 2022) are described below.

The data set deals with Escherichia coli TOP10. Kind of data set: shrunken log2 fold change of peptide-encoding DNA abundance (4.5 h post-induction vs induction); higher = less antimicrobial activity (less host growth inhibition). The settings on record: time post-induction: 4.5 h; library: site-saturation at positions 5, 18, 19, 20.
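Also: peptides expressed intracellularly from a pBAD plasmid library in pooled LB shake-flask culture, induced with 0.3% L-arabinose, DNA abundance read by NGS, three biological replicates, DESeq2 with apeglm shrinkage.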

Take RRIRGRPPRLPRPRPRPCLYPRP: the “shrunken log2 fold change” value was found to be 0.0217. The result for RRIRTRPPRLPRPRPRPCIKPRP reads -0.476. The result for RRIRFRPPRLPRPRPRPAIYPRP reads -0.999. Then RRIRWRPPRLPRPRPRPTTGPRP, with 0.384; and RRIRIRPPRLPRPRPRPCWPPRP, with -0.232; and RRIRDRPPRLPRPRPRPATNPRP, with 0.0922. Turning to RRIRMRPPRLPRPRPRPRCLPRP, the “shrunken log2 fold change” value is -0.0778. Then RRIRHRPPRLPRPRPRPGVEPRP, with 0.0675; and RRIRGRPPRLPRPRPRPLCMPRP, with 0.605; and RRIRSRPPRLPRPRPRPTPEPRP, with 0.866. Take RRIRCRPPRLPRPRPRPICDPRP: the “shrunken log2 fold change” value was -0.0093. The result for RRIRMRPPRLPRPRPRPPCGPRP reads 0.788; that for RRIRDRPPRLPRPRPRPRFHPRP, -0.239; that for RRIRTRPPRLPRPRPRPVSQPRP, 0.0169. Then RRIRPRPPRLPRPRPRPFLLPRP, with -0.516. The result for RRIRWRPPRLPRPRPRPLQTPRP reads 0.957; that for RRIRWRPPRLPRPRPRPRWKPRP, -0.0506. On to RRIRVRPPRLPRPRPRPCHKPRP, for which the “shrunken log2 fold change” value is -0.203. Then RRIRWRPPRLPRPRPRPLEAPRP, with 0.668. Consider RRIRCRPPRLPRPRPRPLKQPRP, for which the “shrunken log2 fold change” value was -0.151. Then RRIRSRPPRLPRPRPRPIRFPRP, with -0.964. The result for RRIRNRPPRLPRPRPRPLDWPRP reads -0.0554; that for RRIRWRPPRLPRPRPRPQVMPRP, 0.209; that for RRIRRRPPRLPRPRPRPAYTPRP, -0.0735. As for RRIRERPPRLPRPRPRPNYVPRP, the “shrunken log2 fold change” value is -0.931. The result for RRIRIRPPRLPRPRPRPAQIPRP reads 0.0984; that for RRIRNRPPRLPRPRPRPRNAPRP, 0.0122; that for RRIRDRPPRLPRPRPRPPTMPRP, -0.061. Consider RRIRKRPPRLPRPRPRPVWLPRP, for which the “shrunken log2 fold change” value stood at 0.192.

Consider RRIRQRPPRLPRPRPRPTEIPRP, for which the “shrunken log2 fold change” value is -0.223. The result for RRIRERPPRLPRPRPRPVLGPRP reads -0.101; that for RRIRWRPPRLPRPRPRPYMAPRP, -0.247; that for RRIRFRPPRLPRPRPRPMYLPRP, -0.376.

Turning to RRIRRRPPRLPRPRPRPSEYPRP, the “shrunken log2 fold change” value was -0.192. As to RRIRWRPPRLPRPRPRPEDSPRP, the “shrunken log2 fold change” value came out at 0.769. The result for RRIRKRPPRLPRPRPRPQCLPRP reads 0.131; that for RRIRARPPRLPRPRPRPEIHPRP, 0.756; that for RRIRYRPPRLPRPRPRPACGPRP, -0.145. The result for RRIRWRPPRLPRPRPRPWIFPRP reads -0.679; that for RRIRRRPPRLPRPRPRPKGTPRP, 0.25; that for RRIRSRPPRLPRPRPRPFMPPRP, -0.149. Take RRIRPRPPRLPRPRPRPIFDPRP: the “shrunken log2 fold change” value is -0.137. Then RRIRARPPRLPRPRPRPRGQPRP, with 0.666; and RRIRIRPPRLPRPRPRPQHVPRP, with -0.211; and RRIRNRPPRLPRPRPRPPSDPRP, with -0.118. Then RRIRQRPPRLPRPRPRPTWLPRP, with 0.295; and RRIRDRPPRLPRPRPRPIIKPRP, with -0.0129; and RRIRIRPPRLPRPRPRPVHSPRP, with -0.0158. As for RRIRPRPPRLPRPRPRPMHVPRP, the “shrunken log2 fold change” value is 0.038. Then RRIRTRPPRLPRPRPRPTKKPRP, with 0.0786. Then RRIRGRPPRLPRPRPRPLEKPRP, with 0.725; and RRIRWRPPRLPRPRPRPMVDPRP, with -0.0461; and RRIRSRPPRLPRPRPRPVMMPRP, with -0.0812. The result for RRIRPRPPRLPRPRPRPSQGPRP reads -0.418; that for RRIRVRPPRLPRPRPRPWMSPRP, -0.076. Regarding RRIRLRPPRLPRPRPRPMRCPRP, the “shrunken log2 fold change” value turned out to be 0.0565. The result for RRIRERPPRLPRPRPRPKVAPRP reads 0.0804; that for RRIRFRPPRLPRPRPRPHGVPRP, -0.0563.

For RRIRTRPPRLPRPRPRPPREPRP, the “shrunken log2 fold change” value stood at 0.141. Then RRIRGRPPRLPRPRPRPPRTPRP, with 1.33; and RRIRIRPPRLPRPRPRPVWFPRP, with -0.125. Then RRIRNRPPRLPRPRPRPVDQPRP, with -0.213; and RRIRCRPPRLPRPRPRPLLLPRP, with -0.265; and RRIRCRPPRLPRPRPRPQHDPRP, with -0.219.

On to RRIRGRPPRLPRPRPRPVWDPRP, for which the “shrunken log2 fold change” value was 0.593. The result for RRIRQRPPRLPRPRPRPVLAPRP reads 0.232; that for RRIRCRPPRLPRPRPRPCTFPRP, -0.856. The result for RRIRKRPPRLPRPRPRPYKAPRP reads -0.0235; that for RRIRDRPPRLPRPRPRPCTSPRP, -0.000687; that for RRIRTRPPRLPRPRPRPVYEPRP, 0.00717. Then RRIRDRPPRLPRPRPRPYNEPRP, with -0.0252; and RRIRSRPPRLPRPRPRPVHKPRP, with -0.151. RRIRIRPPRLPRPRPRPYNIPRP: the “shrunken log2 fold change” value is -0.257. The result for RRIRCRPPRLPRPRPRPARCPRP reads 0.477; that for RRIRKRPPRLPRPRPRPCLRPRP, -0.081; that for RRIRARPPRLPRPRPRPWCVPRP, 0.201.

RRIRQRPPRLPRPRPRPRIMPRP: the “shrunken log2 fold change” value is -0.0396. The result for RRIRSRPPRLPRPRPRPIYFPRP reads -0.397; that for RRIRARPPRLPRPRPRPSTIPRP, -0.273; that for RRIRNRPPRLPRPRPRPEEIPRP, -0.000921.

Take RRIRIRPPRLPRPRPRPVIVPRP: the “shrunken log2 fold change” value was -0.214. Then RRIRRRPPRLPRPRPRPTSEPRP, with 0.372. The result for RRIRNRPPRLPRPRPRPSIRPRP reads -0.0225.

Take RRIRSRPPRLPRPRPRPEGAPRP: the “shrunken log2 fold change” value turned out to be 1.95. Then RRIRDRPPRLPRPRPRPFPHPRP, with -0.303; and RRIRERPPRLPRPRPRPYCPPRP, with -1.59; and RRIRPRPPRLPRPRPRPIKDPRP, with -0.763.

For RRIRKRPPRLPRPRPRPGSLPRP, the “shrunken log2 fold change” value is -0.0469. Then RRIRPRPPRLPRPRPRPHSSPRP, with -0.171; and RRIRARPPRLPRPRPRPEDRPRP, with 0.381.

Regarding RRIRWRPPRLPRPRPRPMDPPRP, the “shrunken log2 fold change” value was found to be 0.0622.

Take RRIRLRPPRLPRPRPRPYCRPRP: the “shrunken log2 fold change” value was -0.256. Turning to RRIRSRPPRLPRPRPRPNLRPRP, the “shrunken log2 fold change” value was 0.0182. Then RRIRMRPPRLPRPRPRPKFDPRP, with 0.217; and RRIRCRPPRLPRPRPRPKTKPRP, with 0.177.

For RRIRQRPPRLPRPRPRPDAGPRP, the “shrunken log2 fold change” value was -0.0738. The result for RRIRWRPPRLPRPRPRPPYIPRP reads -0.3. As to RRIRMRPPRLPRPRPRPAANPRP, the “shrunken log2 fold change” value was -0.00188. Turning to RRIRMRPPRLPRPRPRPKHPPRP, the “shrunken log2 fold change” value was 0.612. The result for RRIRIRPPRLPRPRPRPKQYPRP reads -0.474. Consider RRIRFRPPRLPRPRPRPWVFPRP, for which the “shrunken log2 fold change” value is -0.00336. For the sequence RRIRERPPRLPRPRPRPTRLPRP, the “shrunken log2 fold change” value was determined as 0.576. In the case of RRIRVRPPRLPRPRPRPGSIPRP, the “shrunken log2 fold change” value was 0.00983.

In the case of RRIRSRPPRLPRPRPRPLNCPRP, the “shrunken log2 fold change” value is -0.374. Then RRIRFRPPRLPRPRPRPICQPRP, with -0.182; and RRIRLRPPRLPRPRPRPGMGPRP, with 0.241. Then RRIRTRPPRLPRPRPRPPHNPRP, with 0.0332; and RRIRVRPPRLPRPRPRPCFPPRP, with 0.228; and RRIRYRPPRLPRPRPRPEFCPRP, with -0.258. For the sequence RRIRERPPRLPRPRPRPLLVPRP, the “shrunken log2 fold change” value is -0.441. As for RRIRVRPPRLPRPRPRPFKNPRP, the “shrunken log2 fold change” value was -0.055. The result for RRIRDRPPRLPRPRPRPFQIPRP reads 0.0155. As for RRIRSRPPRLPRPRPRPHGPPRP, the “shrunken log2 fold change” value was -0.0864. Turning to RRIRGRPPRLPRPRPRPKQRPRP, the “shrunken log2 fold change” value came out at 0.471. The result for RRIRERPPRLPRPRPRPFYDPRP reads -0.106. As for RRIRERPPRLPRPRPRPCFGPRP, the “shrunken log2 fold change” value is -0.252. In the case of RRIRQRPPRLPRPRPRPHSGPRP, the “shrunken log2 fold change” value was -0.01. Then RRIRWRPPRLPRPRPRPICLPRP, with 0.0313; and RRIRTRPPRLPRPRPRPNLTPRP, with -0.00355. RRIRFRPPRLPRPRPRPQCDPRP: the “shrunken log2 fold change” value is -0.388.

On to RRIRLRPPRLPRPRPRPPGLPRP, for which the “shrunken log2 fold change” value worked out at 0.149. Then RRIRKRPPRLPRPRPRPTYTPRP, with 0.475. For RRIRCRPPRLPRPRPRPYPEPRP, the “shrunken log2 fold change” value is -0.0664. The result for RRIRIRPPRLPRPRPRPKENPRP reads -0.505.

As to RRIRWRPPRLPRPRPRPCGPPRP, the “shrunken log2 fold change” value was determined as 0.183.
